From publication PMC10170503, “Oral Delivery of Nanoparticles Carrying Ancestral Uricase Enzyme Protects against Hyperuricemia in Knockout Mice” (Biomacromolecules, 2023)

Target: the molecule itself
Experiment: microfluidic denaturing gel electrophoresis (Bioanalyzer); Agilent Bioanalyzer 2100, Protein 80 chip; purified Qβ-wt and Qβ@AncUOX particles; dimer band left by incomplete denaturation

B1: Qβ capsid protein (coat protein), assembled as virus-like particle (natural protein, Qβ (bacteriophage, as named), UniProt P03615 1-133, looked up)
chain: MAKLETVTLGNIGKDGKQTLVLNPRGVNPTNGVASLSQAGAVPALEKRVTVSVSQPSRNRKNYKVQVKIQNPTACTANGSCDPSVTRQAYADVTFSFTQYSTDEERAFVRTELAALLASPLLIDAIDQLNPAY
notes: also called Qβ CP; CP; source: E. coli BL21 (DE3), co-expressed with Rev-tagged AncUOX from a bicistronic pCDF-1b plasmid; VLPs purified (ammonium sulfate precipitation, n-butanol:chloroform extraction, sucrose density ultracentrifugation)
  stoichiometry N: 2
